Measurements: PMC6098011, “Insights into degradation mechanism of N-end rule substrates by p62/SQSTM1 autophagy adapter” (Nature Communications, 2018)

What was measured:
[1] = target: MBP-fused PB1-ZZ of p62 (residues 1-181) wild type (human) (UniProt Q13501); test: SPR; BIAcore 2000; MBP-PB1-ZZ WT or D69A immobilised on CM5; R-BiP N407 5-100 μM injected; 20 mM HEPES pH 7.5, 100 mM NaCl, 1 mM DTT
[2] = target: MBP-PB1-ZZ D69A (human) (UniProt Q13501); test: as above

Kd [1]: 20.2 µM
Kd [2]: 26.1 µM
Substance: R-BiP N407 protein (from UniProt P11021 19-654) (domain or fragment)
